From paper doi:10.1101/2025.01.10.632391

Target: angiopoietin-like 6 (ANGPTL6) (UniProt Q8NI99)
Experiment: SPR

Chain of UniProt Q8NI99 (Q8NI99 21-470): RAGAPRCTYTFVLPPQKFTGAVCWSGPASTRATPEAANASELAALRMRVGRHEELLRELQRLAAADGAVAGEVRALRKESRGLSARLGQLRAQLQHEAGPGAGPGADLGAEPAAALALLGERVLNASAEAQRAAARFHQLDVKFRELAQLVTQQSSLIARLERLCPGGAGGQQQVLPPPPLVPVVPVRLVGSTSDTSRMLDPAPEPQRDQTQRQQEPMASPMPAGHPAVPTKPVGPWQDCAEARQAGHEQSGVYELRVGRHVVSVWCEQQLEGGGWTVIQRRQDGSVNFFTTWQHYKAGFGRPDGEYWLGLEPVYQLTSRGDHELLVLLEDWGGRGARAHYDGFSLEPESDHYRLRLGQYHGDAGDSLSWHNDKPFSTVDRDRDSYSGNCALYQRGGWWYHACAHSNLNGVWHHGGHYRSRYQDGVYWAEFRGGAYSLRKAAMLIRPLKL

Kd: 13 nM
koff: 0.0012 s⁻¹
Substance: αVβ5 integrin (from UniProt P06756 31-1048; P18084 24-719) (complex)
